Patent US20120328625A1 (AstraZeneca / MedImmune, published 2012)
Residue numbers refer to the chain shown, from its start.

Assays:
[1] = target: T1, full length human Shh expressed on the cell surface (human, UniProt Q15465 24-462); test: cell-based or functional assay
[2] = target: T2, Shh-N in conditioned medium (human, UniProt Q15465 24-197, N-terminal palmitoyl modification; lacks the C-terminal cholesterol moiety); test: cell-based or functional assay
[3] = target: T1, full length human Shh expressed on the …; test: cell-based or functional assay; remark: listed apart in the source
[4] = target: T2, Shh-N in conditioned medium; test: cell-based or functional assay; remark: listed apart in the source
[5] = target: T1, full length human Shh expressed on the …; test: flow cytometry, transfected against parental 293T cells
Experimental: (§1) Finally, binding of antibody in exhaust hybridoma supernatants to native Shh was assessed using flow cytometry. […] Transfected or parental cells were seeded into the plates with V-bottom wells (50,000 cells/well). Exhaust supernatants (50 μl of a 1:10 dilution) were added to each well and incubated at 4° C. for 1 hr. […] It was added to a concentration of 2 μg/ml in a volume of 50 μl. Cells were washed and 50 μl of a 2 μg/ml solution of secondary antibody (Cy5-labeled goat-anti-human IgG or Cy5-labeled goat-anti-rabbit IgG) were added to each well. 7AAD was added to a concentration of 5 μg/ml and the mixture was incubated for 30 min at RT. The mean fluorescence for each sample was then determined using flow cytometry.

biotinylated human Shh = target: T3, biotinylated human Shh (human, UniProt Q15465 24-197, limits assumed, biotinylated); test: ELISA, hybridoma supernatant on neutravidin-captured biotin-Shh
T3 construct: also called biotin-Shh; immobilized biotinylated Shh
Experimental: After blocking with 1% milk in PBS, 40 μl of 500 ng/ml biotinylated Shh in 1×PBS, 1% milk (wt/vol) was added to each well and incubated for 1 hr at RT. Hybridoma supernatants (10 μl/well) were added to 40 μl of 1% milk, 0.05% Tween-20 in PBS per well and incubated 1 hr at RT. Following washing and incubation with secondary antibody (100 ng/ml goat-anti-human IgG Fc HRP), wells were developed with TMB substrate and subsequently quenched with 1 N HCl.

[6] = target: T1, full length human Shh expressed on the …; test: FMAT, hybridoma supernatant on 293T cells transiently expressing human Shh
Experimental: Cells were maintained at 1×10⁶ cells/ml overnight at 37° C., 5% CO₂. […] Supernatants were added to each well (10 μl/well) and incubated 1.5 hrs at RT. […] Plates were read on the FMAT 8100 HTS system from Applied Biosystems. Total signal (FL1×count) is defined as the number of positive cells in a well (count) multiplied by the average fluorescence intensity of the positive cells (FL1).

[7] = target: T1, full length human Shh expressed on the …; test: flow cytometry, exhaust hybridoma supernatant 1:10, 293T cells transiently expressing human Shh
Experimental: as §1

[8] = target: T2, Shh-N in conditioned medium; test: cell-based or functional assay; remark: listed apart in the source

B1: 1H12 (antibody, V domains shown)
VH: QVQLVQSGAEVKKPGASVKVSCKASGYTFTGYYMHWVRQAPGQGLEWVGWFNPNSGGTNCAQKFQGRVTMTRDTSISTAYMELSRLRSDDTAVYYCAREAVESYYYGLDVWGQGTTVTVSS
VL: QSVVTQPPSASGTPGQRITISCSGSSSNIGSNYVYWYHQLPGSAPNLLIYRNNQRPSGVPDRFSGSKSGTSASLAISGLRSEDEADYFCAVWDDSLRGVVFGGGTKLTVL
notes: fully human XenoMouse hybridoma antibody; tested as hybridoma supernatant and as purified antibody; also called MAb 1H12
% Inh of Gli1 reporter, Co-Culture N = 1 [1]: 48%
% Inh of Gli1 reporter, Co-Culture N = 2 [1]: 19%
% Inh of Gli1 reporter, CM N = 1 [2]: 38%
% Inh of Gli1 reporter, CM N = 3 [2]: 40%
% Inhibition of Gli1 reporter, Co-Culture N = 1, 20 µg/ml [3]: 8%
% Inhibition of Gli1 reporter, Co-Culture N = 2, 20 µg/ml [3]: 15%
% Inhibition of Gli1 reporter, Co-Culture N = 3, 20 µg/ml [3]: 13%
% Inhibition of Gli1 reporter, Conditioned Media N = 1, 20 µg/ml [4]: -5%
% Inhibition of Gli1 reporter, Conditioned Media N = 2, 20 µg/ml [4]: -5%
ratio [5]: 9.1
OD450 (biotinylated human Shh): 3.73 OD450
FL1 X COUNT [6]: 1.11e+06
X Geo Mean (Transients) [7]: 34.4

B2: 1A12 (antibody, V domains shown)
VH: QVYLVESGGGVVQPGRSLRLSCAASGFTFSSYGMHWVRQAPGKGLEWVAVIWYDGSNEYYADSVKGRFTISRDNSKNTLYLQMNSLRAEDTAVYYCARDLYYYGSGSPFDYWGQGTLVTVSS
VL: EIVMTQSPATLSVSPGERATLSCRASQSVSSNLAWYQQKPGQAPRLLIFGVSIRATGIPARFSGSGSGTEFTLTISSLQSEDFAVYYCQQYNDWPRPGFGGGTKVEIK
notes: fully human XenoMouse hybridoma antibody; tested as hybridoma supernatant and as purified antibody; also called MAb 1A12
% Inh of Gli1 reporter, Co-Culture N = 1 [1]: 40%
% Inh of Gli1 reporter, Co-Culture N = 2 [1]: 32%
% Inh of Gli1 reporter, CM N = 1 [2]: 25%
% Inh of Gli1 reporter, CM N = 3 [2]: 43%
% Inhibition of Gli1 reporter, Co-Culture N = 1, 20 µg/ml [3]: 58%
% Inhibition of Gli1 reporter, Co-Culture N = 2, 20 µg/ml [3]: 59%
% Inhibition of Gli1 reporter, Co-Culture N = 3, 20 µg/ml [3]: 22%
% Inhibition of Gli1 reporter, Conditioned Media N = 1, 20 µg/ml [4]: 18%
% Inhibition of Gli1 reporter, Conditioned Media N = 2, 20 µg/ml [4]: 57%
IC50, inhibition of osteoblast differentiation (alkaline phosphatase) of C3H10T1/2 cells [8]: 4.6 nM
ratio [5]: 78.1
OD450 (biotinylated human Shh): 4.09 OD450
FL1 X COUNT [6]: 696000
X Geo Mean (Transients) [7]: 290

B3: 1H10 (antibody, V domains shown)
VH: B2 VH with Y3Q, Y53N, Y111D
VL: B2 VL with A9G, S30G, I58V
notes: fully human XenoMouse hybridoma antibody; tested as hybridoma supernatant and as purified antibody; also called MAb 1H10
% Inh of Gli1 reporter, Co-Culture N = 1 [1]: 37%
% Inh of Gli1 reporter, Co-Culture N = 2 [1]: 23%
% Inh of Gli1 reporter, CM N = 1 [2]: 43%
% Inh of Gli1 reporter, CM N = 3 [2]: 28%
% Inhibition of Gli1 reporter, Co-Culture N = 1, 20 µg/ml [3]: 47%
% Inhibition of Gli1 reporter, Co-Culture N = 2, 20 µg/ml [3]: 68%
% Inhibition of Gli1 reporter, Co-Culture N = 3, 20 µg/ml [3]: 4%
% Inhibition of Gli1 reporter, Conditioned Media N = 1, 20 µg/ml [4]: 48%
% Inhibition of Gli1 reporter, Conditioned Media N = 2, 20 µg/ml [4]: 24%
IC50, inhibition of osteoblast differentiation (alkaline phosphatase) of C3H10T1/2 cells [8]: 4.4 nM
ratio [5]: 40.9
OD450 (biotinylated human Shh): 3.46 OD450
FL1 X COUNT [6]: 370000
X Geo Mean (Transients) [7]: 150

B4: 1G12 (antibody, V domains shown)
VH: B2 VH with Y3Q, S31T, E58K, K65N, A88G
VL: B2 VL with A19V, F49Y, N92D, D93N
notes: fully human XenoMouse hybridoma antibody; tested as hybridoma supernatant and as purified antibody; also called MAb 1G12
% Inh of Gli1 reporter, Co-Culture N = 1 [1]: 30%
% Inh of Gli1 reporter, Co-Culture N = 2 [1]: 35%
% Inh of Gli1 reporter, CM N = 1 [2]: 32%
% Inh of Gli1 reporter, CM N = 3 [2]: 40%
% Inhibition of Gli1 reporter, Co-Culture N = 1, 20 µg/ml [3]: 35%
% Inhibition of Gli1 reporter, Co-Culture N = 2, 20 µg/ml [3]: 43%
% Inhibition of Gli1 reporter, Co-Culture N = 3, 20 µg/ml [3]: 28%
% Inhibition of Gli1 reporter, Conditioned Media N = 1, 20 µg/ml [4]: 23%
% Inhibition of Gli1 reporter, Conditioned Media N = 2, 20 µg/ml [4]: 44%
IC50, inhibition of osteoblast differentiation (alkaline phosphatase) of C3H10T1/2 cells [8]: 7.1 nM
ratio [5]: 2.2
OD450 (biotinylated human Shh): 2.49 OD450
FL1 X COUNT [6]: 327000
X Geo Mean (Transients) [7]: 8.3

B5: 1H8 (antibody, V domains shown)
VH: QVQLQESGPGLVKPSETLSLTCTVSGGSISSYYWTWIRQPPGKGLEWIGYIYYSGSTNYNPSLKSRVTISVDTSKNQFSLKLSSVTAADTAVYYCARDRLLYGMDVWGQGTTVTVSS
VL: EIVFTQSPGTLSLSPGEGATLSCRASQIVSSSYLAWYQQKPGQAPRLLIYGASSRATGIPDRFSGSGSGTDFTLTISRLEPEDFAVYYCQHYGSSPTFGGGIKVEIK
notes: fully human XenoMouse hybridoma antibody; also called MAb 1H8
% Inh of Gli1 reporter, Co-Culture N = 1 [1]: 38%
% Inh of Gli1 reporter, Co-Culture N = 2 [1]: 42%
% Inh of Gli1 reporter, CM N = 1 [2]: 52%
% Inh of Gli1 reporter, CM N = 3 [2]: 42%
% Inhibition of Gli1 reporter, Co-Culture N = 1, 20 µg/ml [3]: 32%
% Inhibition of Gli1 reporter, Co-Culture N = 2, 20 µg/ml [3]: 25%
% Inhibition of Gli1 reporter, Co-Culture N = 3, 20 µg/ml [3]: 36%
% Inhibition of Gli1 reporter, Conditioned Media N = 1, 20 µg/ml [4]: 34%
% Inhibition of Gli1 reporter, Conditioned Media N = 2, 20 µg/ml [4]: 48%
IC50, inhibition of osteoblast differentiation (alkaline phosphatase) of C3H10T1/2 cells [8]: 5.7 nM
ratio [5]: 44.1
OD450 (biotinylated human Shh): 4.04 OD450
FL1 X COUNT [6]: 89600
X Geo Mean (Transients) [7]: 165

B6: 1A5 (antibody, V domains shown)
VH: EVQVVESGGDLIQPGGSLRLSCVASGFTVSSNYMNWVRQAPGKGLEWVSVIYSGGNTYYADSVKGRFTISRDNSKNTLYLQMNSLRAEDTAVYYCARDSSVVVGLGYFDLWGRGTLVTVSS
VL: SYELTQPPSVSVSPGQTASITCSGDKLGANYASWYQQKPGQSPVLVIFQDTKRPSGIPERFSGSNSGNTATLTISGTQAMDEADYYCQAWDFSTVIFGGGTKLTVL
notes: fully human XenoMouse hybridoma antibody; tested as hybridoma supernatant and as purified antibody; also called MAb 1A5
% Inh of Gli1 reporter, Co-Culture N = 1 [1]: 20%
% Inh of Gli1 reporter, Co-Culture N = 2 [1]: 27%
% Inh of Gli1 reporter, CM N = 1 [2]: 73%
% Inh of Gli1 reporter, CM N = 3 [2]: 62%
% Inhibition of Gli1 reporter, Co-Culture N = 1, 20 µg/ml [3]: 25%
% Inhibition of Gli1 reporter, Co-Culture N = 2, 20 µg/ml [3]: 20%
% Inhibition of Gli1 reporter, Co-Culture N = 3, 20 µg/ml [3]: 20%
% Inhibition of Gli1 reporter, Conditioned Media N = 1, 20 µg/ml [4]: 35%
% Inhibition of Gli1 reporter, Conditioned Media N = 2, 20 µg/ml [4]: 34%
IC50, inhibition of osteoblast differentiation (alkaline phosphatase) of C3H10T1/2 cells [8]: 4.8 nM
ratio [5]: 70.5
OD450 (biotinylated human Shh): 6 OD450
FL1 X COUNT [6]: 304000
X Geo Mean (Transients) [7]: 265

B7: 1C8 (antibody, V domains shown)
VH: B6 VH with V4L, D10G, V23A, A24V, Y33C, N56K, Y58A, Y79C, V101M
VL: B6 VL with Q16L, A29Y, N30K, F48Y, T51I, F92S, I96V
notes: fully human XenoMouse hybridoma antibody; tested as hybridoma supernatant and as purified antibody; also called MAb 1C8
% Inh of Gli1 reporter, Co-Culture N = 1 [1]: 32%
% Inh of Gli1 reporter, Co-Culture N = 2 [1]: 24%
% Inh of Gli1 reporter, CM N = 1 [2]: 47%
% Inh of Gli1 reporter, CM N = 3 [2]: 43%
% Inhibition of Gli1 reporter, Co-Culture N = 1, 20 µg/ml [3]: 26%
% Inhibition of Gli1 reporter, Co-Culture N = 2, 20 µg/ml [3]: 10%
% Inhibition of Gli1 reporter, Co-Culture N = 3, 20 µg/ml [3]: 23%
% Inhibition of Gli1 reporter, Conditioned Media N = 1, 20 µg/ml [4]: -1%
% Inhibition of Gli1 reporter, Conditioned Media N = 2, 20 µg/ml [4]: 8%
ratio [5]: 33.3
FL1 X COUNT [6]: 319000
X Geo Mean (Transients) [7]: 118

B8: 1F4 (antibody, V domains shown)
VH: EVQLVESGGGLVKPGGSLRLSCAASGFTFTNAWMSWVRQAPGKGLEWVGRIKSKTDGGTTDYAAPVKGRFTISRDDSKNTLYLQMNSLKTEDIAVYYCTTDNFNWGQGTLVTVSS
VL: EIVMTQSPATLSVSPGERATLSCRASQSISSNLAWYQQKPGQAPRLLIYGASTRATGIPARFSGSGSGTEFTLTISSLQSEDFAVYFCQQYHSWWTFGQGTKVEIQ
notes: fully human XenoMouse hybridoma antibody; tested as hybridoma supernatant and as purified antibody; also called MAb 1F4
% Inh of Gli1 reporter, Co-Culture N = 1 [1]: 31%
% Inh of Gli1 reporter, Co-Culture N = 2 [1]: 47%
% Inh of Gli1 reporter, CM N = 1 [2]: 21%
% Inh of Gli1 reporter, CM N = 3 [2]: 9%
% Inhibition of Gli1 reporter, Co-Culture N = 1, 20 µg/ml [3]: 31%
% Inhibition of Gli1 reporter, Co-Culture N = 2, 20 µg/ml [3]: 18%
% Inhibition of Gli1 reporter, Co-Culture N = 3, 20 µg/ml [3]: 28%
% Inhibition of Gli1 reporter, Conditioned Media N = 1, 20 µg/ml [4]: 2%
% Inhibition of Gli1 reporter, Conditioned Media N = 2, 20 µg/ml [4]: 16%
ratio [5]: 63.8
OD450 (biotinylated human Shh): 6 OD450
FL1 X COUNT [6]: 110000
X Geo Mean (Transients) [7]: 219
